The source of these data is article PMC9627735 (RSC Chemical Biology, 2022).

Numbering of substitutions follows the chain as printed. Numbers in names are those of the source.

Data set [1] deals with recombinant human wildtype Bri2 BRICHOS (human) (UniProt Q9Y287). In words: SEC; rh Bri2 BRICHOS wildtype and D148N at rising concentrations, 0.5 to 200 μmol L^-1 (ESI Fig. S2a, b, S3, S4); monomer to dimer. On the technique in general: In gel filtration, larger molecules generally elute earlier.
Data set [2] shares this target. In words: SEC; rh Bri2 BRICHOS at pH 6.0, 20 mmol L^-1 NaPi, 0.2 mmol L^-1 EDTA (ESI Fig. S2c, d); monomer to dimer.
Data set [3] concerns the molecule itself. In words: SEC; purified rh proSP-C BRICHOS variants on Superdex 200 GL.
Data set [4] concerns the molecule itself. In words: other fluorescence titration; Trp fluorescence of rh Bri2 BRICHOS T206W monomers, 2 μmol L^-1, 20 mmol L^-1 NaPi, 0.2 mmol L^-1 EDTA, pH 6.3-8.0; excitation 280 nm; monomer to dimer.
Data set [5] deals with the molecule itself. The experiment in a line: SEC; rh Bri2 BRICHOS species obtained by thrombin cleavage of isolated NT*-Bri2 BRICHOS species; Superdex 200 PG, 200 GL or 75 PG; 20 mmol L^-1 NaPi, 0.2 mmol L^-1 EDTA.
Data set [6] concerns the molecule itself. The experiment in a line: SEC; rh Bri2 BRICHOS wildtype and D148N at rising concentrations, 0.5 to 200 μmol L^-1 (ESI Fig. S2a, b, S3, S4); monomer to dimer.

Turning to “recombinant human wildtype Bri2 BRICHOS (from UniProt Q9Y287 113-231) (domain or fragment)”, the stoichiometry N in data set [1] and in data set [2] was 2 in each case.

B1: recombinant human wildtype proSP-C BRICHOS (domain or fragment, UniProt P11686 86-197, looked up)
chain: EHLVTTATFSIGSTGLVVYDYQQLLIAYKPAPGTCCYIMKIAPESIPSLEALTRKVHNFQMECSLQAKPAVPTSKLGQAEGRDAGSAPSGGDPAFLGMAVSTLCGEVPLYYI
notes: prosurfactant protein C (proSP-C), human, BRICHOS domain, residues 86-197; Forms trimers and some monomers on SEC; also called rh wildtype proSP-C BRICHOS; wt proSP-C BRICHOS; source: E. coli Origami 2 (DE3) pLysS, purified (Ni-NTA, ion exchange); not shown: thioredoxin, N-terminal, cleaved
Regarding B1, the stoichiometry N (as a rule, the number of molecules, sites or subunits per partner or assembly) in data set [3] was found to be 3.

B2: recombinant human proSP-C BRICHOS D105N (domain or fragment, UniProt P11686 86-197, looked up)
chain: B1 chain with D20N
notes: prosurfactant protein C (proSP-C), human, BRICHOS domain, residues 86-197, with D105N; Made by site-directed mutagenesis of the wildtype plasmid; expressed and purified in parallel with the wildtype; also called rh proSP-C BRICHOS D105N; D105N mutant; source: E. coli Origami 2 (DE3) pLysS, purified (Ni-NTA, ion exchange); not shown: thioredoxin, N-terminal, cleaved
Consider B2, for which the “stoichiometry N” value in data set [3] stood at 3.

B3: recombinant human Bri2 BRICHOS T206W (domain or fragment, UniProt Q9Y287 113-231, looked up)
chain: QTIEENIKIFEEEEVEFISVPVPEFADSDPANIVHDFNKKLTAYLDLNLDKCYVIPLNTSIVMPPRNLLELLINIKAGTYLPQSYLIHEHMVIWDRIENIDHLGFFIYRLCHDKETYKL
notes: integral membrane protein 2B (ITM2B, Bri2), human, BRICHOS domain, residues 113-231, with Thr206 replaced by Trp; also called rh Bri2 BRICHOS T206W; source: E. coli SHuffle T7, purified (Ni-NTA, thrombin cleavage, second Ni-NTA, SEC); not shown: His6, N-terminal, cleaved; NT*, N-terminal, cleaved
Consider B3, for which, in data set [4], the binding result was “binds”.

B4: recombinant human Bri2 BRICHOS D148N (domain or fragment, UniProt Q9Y287 113-231, looked up)
chain: B3 chain with D36N, W94T
notes: integral membrane protein 2B (ITM2B, Bri2), human, BRICHOS domain, residues 113-231, with D148N; Occurs as monomers, dimers and large oligomers, isolated by SEC; all species are this one construct; also called rh Bri2 BRICHOS D148N; source: E. coli SHuffle T7, purified (Ni-NTA, thrombin cleavage, second Ni-NTA, SEC); not shown: His6, N-terminal, cleaved; NT*, N-terminal, cleaved
As to B4, the “stoichiometry N” value in data set [5] is 2. Moreover, the “ratio of dimers to monomers at 0.5 μmol L^-1” value in data set [6] is around 1.
